According to publication PMC5517495, “Candidate SNP Markers of Familial and Sporadic Alzheimer's Diseases Are Predicted by a Significant Change in the Affinity of TATA-Binding Protein for Human Gene Promoters”:

B1: TPI1 promoter rs1800202 ancestral allele (stopped-flow) (dsDNA)
DNA 1: CGCGGCGCTCTATATAAGTGGGCAGT
DNA 2: ACTGCCCACTTATATAGAGCGCCGCG
B2: TPI1 promoter rs1800202 minor allele (stopped-flow) (dsDNA)
DNA 1: CGCGGCGCTCTATAGAAGTGGGCAGT
DNA 2: ACTGCCCACTTCTATAGAGCGCCGCG

Target: TATA-binding protein (TBP) (human, UniProt P20226 1-339)
Assay: stopped-flow fluorescence (FRET); 0.1 uM ODN, 0.1-1.0 uM TBP; EMSA: 20 mM HEPES-KOH pH 7.6, 5 mM MgCl2, 70 mM KCl, 1 mM EDTA, 100 ug/ml BSA, 0.01% NP-40 (printed 0.0.1%), 5% glycerol, 25 C; stopped-flow buffer not stated
Conditions: protein: recombinant; label: 5' TAMRA and 5' FAM; blunt

Sequence of TATA-binding protein (TBP) (P20226 whole entry): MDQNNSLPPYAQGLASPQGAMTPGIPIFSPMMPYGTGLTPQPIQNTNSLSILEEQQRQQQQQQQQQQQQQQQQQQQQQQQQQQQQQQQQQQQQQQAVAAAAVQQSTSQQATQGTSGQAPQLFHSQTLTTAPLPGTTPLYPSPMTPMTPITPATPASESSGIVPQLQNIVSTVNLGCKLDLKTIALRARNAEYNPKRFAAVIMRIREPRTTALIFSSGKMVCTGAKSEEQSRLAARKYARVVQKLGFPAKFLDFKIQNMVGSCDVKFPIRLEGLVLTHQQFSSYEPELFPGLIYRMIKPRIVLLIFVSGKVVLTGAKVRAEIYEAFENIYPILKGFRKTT

| Binder | Kd |
| --- | --- |
| B1 | 0.001 µM |
| B2 | 0.019 µM |
